Reference: IntAct's records for PubMed 31515488

B1: Cyclic AMP-responsive element-binding protein 3-like protein 1 (Homo sapiens), Q96BA8 (parent)
chain: MDAVLEPFPADRLFPGSSFLDLGDLNESDFLNNAHFPEHLDHFTENMEDFSNDLFSSFFDDPVLDEKSPLLDMELDSPTPGIQAEHSYSLSGDSAPQSPLVPIKMEDTTQDAEHGAWALGHKLCSIMVKQEQSPELPVDPLAAPSAMAAAAAMATTPLLGLSPLSRLPIPHQAPGEMTQLPVIKAEPLEVNQFLKVTPEDLVQMPPTPPSSHGSDSDGSQSPRSLPPSSPVRPMARSSTAISTSPLLTAPHKLQGTSGPLLLTEEEKRTLIAEGYPIPTKLPLTKAEEKALKRVRRKIKNKISAQESRRKKKEYVECLEKKVETFTSENNELWKKVETLENANRTLLQQLQKLQTLVTNKISRPYKMAATQTGTCLMVAALCFVLVLGSLVPCLPEFSSGSQTVKEDPLAADGVYTASQMPSRSLLFYDDGAGLWEDGRSTLLPMEPPDGWEINPGGPAEQRPRDHLQHDHLDSTHETTKYLSEAWPKDGGNGTSPDFSHSKEWFHDRDLGPNTTIKLS
partner: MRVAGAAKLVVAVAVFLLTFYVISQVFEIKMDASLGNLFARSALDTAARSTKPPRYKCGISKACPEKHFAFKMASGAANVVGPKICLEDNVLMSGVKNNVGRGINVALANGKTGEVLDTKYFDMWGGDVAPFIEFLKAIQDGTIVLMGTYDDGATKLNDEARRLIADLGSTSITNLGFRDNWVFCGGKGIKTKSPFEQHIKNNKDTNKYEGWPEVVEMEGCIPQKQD
B2: Pre-mRNA-splicing factor SPF27 (Homo sapiens), O75934 (parent)
chain: MAGTGLVAGEVVVDALPYFDQGYEAPGVREAAAALVEEETRRYRPTKNYLSYLTAPDYSAFETDIMRNEFERLAARQPIELLSMKRYELPAPSSGQKNDITAWQECVNNSMAQLEHQAVRIENLELMSQHGCNAWKVYNENLVHMIEHAQKELQKLRKHIQDLNWQRKNMQLTAGSKLREMESNWVSLVSKNYEIERTIVQLENEIYQIKQQHGEANKENIRQDF
partner: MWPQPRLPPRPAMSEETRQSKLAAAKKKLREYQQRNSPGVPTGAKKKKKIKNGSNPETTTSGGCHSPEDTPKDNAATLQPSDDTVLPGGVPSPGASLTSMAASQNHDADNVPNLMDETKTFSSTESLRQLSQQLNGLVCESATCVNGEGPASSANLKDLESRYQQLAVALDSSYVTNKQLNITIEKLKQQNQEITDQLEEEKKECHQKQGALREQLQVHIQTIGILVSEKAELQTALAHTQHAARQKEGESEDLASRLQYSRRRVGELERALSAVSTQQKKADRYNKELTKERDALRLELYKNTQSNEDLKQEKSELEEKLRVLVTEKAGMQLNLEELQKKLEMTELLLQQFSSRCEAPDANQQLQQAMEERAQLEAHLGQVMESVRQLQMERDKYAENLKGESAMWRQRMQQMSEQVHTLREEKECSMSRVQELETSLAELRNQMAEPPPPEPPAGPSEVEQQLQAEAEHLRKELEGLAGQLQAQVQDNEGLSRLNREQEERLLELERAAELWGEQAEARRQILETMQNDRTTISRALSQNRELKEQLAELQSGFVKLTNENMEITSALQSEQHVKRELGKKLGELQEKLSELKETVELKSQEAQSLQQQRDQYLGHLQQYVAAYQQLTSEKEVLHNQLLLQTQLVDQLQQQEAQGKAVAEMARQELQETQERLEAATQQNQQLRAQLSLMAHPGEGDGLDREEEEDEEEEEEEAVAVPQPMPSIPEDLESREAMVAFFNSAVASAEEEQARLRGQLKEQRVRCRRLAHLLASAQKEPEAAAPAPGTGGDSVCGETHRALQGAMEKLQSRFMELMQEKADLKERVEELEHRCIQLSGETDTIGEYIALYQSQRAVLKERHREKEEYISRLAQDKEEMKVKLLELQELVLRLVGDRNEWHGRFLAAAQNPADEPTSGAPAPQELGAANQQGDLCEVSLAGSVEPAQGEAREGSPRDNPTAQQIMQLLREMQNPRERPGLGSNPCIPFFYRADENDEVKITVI
B3: Keratin, type II cytoskeletal 6A (Homo sapiens), P02538 (parent)
chain: MASTSTTIRSHSSSRRGFSANSARLPGVSRSGFSSVSVSRSRGSGGLGGACGGAGFGSRSLYGLGGSKRISIGGGSCAISGGYGSRAGGSYGFGGAGSGFGFGGGAGIGFGLGGGAGLAGGFGGPGFPVCPPGGIQEVTVNQSLLTPLNLQIDPTIQRVRAEEREQIKTLNNKFASFIDKVRFLEQQNKVLETKWTLLQEQGTKTVRQNLEPLFEQYINNLRRQLDSIVGERGRLDSELRGMQDLVEDFKNKYEDEINKRTAAENEFVTLKKDVDAAYMNKVELQAKADTLTDEINFLRALYDAELSQMQTHISDTSVVLSMDNNRNLDLDSIIAEVKAQYEEIAQRSRAEAESWYQTKYEELQVTAGRHGDDLRNTKQEIAEINRMIQRLRSEIDHVKKQCANLQAAIADAEQRGEMALKDAKNKLEGLEDALQKAKQDLARLLKEYQELMNVKLALDVEIATYRKLLEGEECRLNGEGVGQVNISVVQSTVSSGYGGASGVGSGLGLGGGSSYSYGSGLGVGGGFSSSSGRAIGGGLSSVGGGSSTIKYTTTSSSSRKSYKH
partner: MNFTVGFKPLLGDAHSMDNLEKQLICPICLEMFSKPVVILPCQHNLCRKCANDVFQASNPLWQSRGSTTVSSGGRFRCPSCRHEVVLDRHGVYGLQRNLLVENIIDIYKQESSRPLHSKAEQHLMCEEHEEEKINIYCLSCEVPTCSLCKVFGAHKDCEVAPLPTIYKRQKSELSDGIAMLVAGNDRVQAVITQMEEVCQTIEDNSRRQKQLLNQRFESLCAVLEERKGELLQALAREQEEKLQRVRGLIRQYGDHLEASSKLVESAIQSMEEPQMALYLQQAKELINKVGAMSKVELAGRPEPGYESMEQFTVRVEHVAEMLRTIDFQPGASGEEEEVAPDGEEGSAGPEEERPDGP
B4: Cytochrome b-245 chaperone 1 (Homo sapiens), Q9BQA9 (parent)
chain: MYLQVETRTSSRLHLKRAPGIRSWSLLVGILSIGLAAAYYSGDSLGWKLFYVTGCLFVAVQNLEDWEEAIFDKSTGKVVLKTFSLYKKLLTLFRAGHDQVVVLLHDVRDVSVEEEKVRYFGKGYMVVLRLATGFSHPLTQSAVMGHRSDVEAIAKLITSFLELHCLESPTELSQSSDSEAGDPASQS
B5: Golgin-45 (Homo sapiens), Q9H2G9 (parent)
chain: MTTKNLETKVTVTSSPIRGAGDGMETEEPPKSVEVTSGVQSRKHHSLQSPWKKAVPSESPGVLQLGKMLTEKAMEVKAVRILVPKAAITHDIPNKNTKVKSLGHHKGEFLGQSEGVIEPNKELSEVKNVLEKLKNSERRLLQDKEGLSNQLRVQTEVNRELKKLLVASVGDDLQYHFERLAREKNQLILENEALGRNTAQLSEQLERMSIQCDVWRSKFLASRVMADELTNSRAALQRQNRDAHGAIQDLLSEREQFRQEMIATQKLLEELLVSLQWGREQTYSPSVQPHSTAELALTNHKLAKAVNSHLLGNVGINNQKKIPSTVEFCSTPAEKMAETVLRILDPVTCKESSPDNPFFESSPTTLLATKKNIGRFHPYTRYENITFNCCNHCRGELIAL
partner: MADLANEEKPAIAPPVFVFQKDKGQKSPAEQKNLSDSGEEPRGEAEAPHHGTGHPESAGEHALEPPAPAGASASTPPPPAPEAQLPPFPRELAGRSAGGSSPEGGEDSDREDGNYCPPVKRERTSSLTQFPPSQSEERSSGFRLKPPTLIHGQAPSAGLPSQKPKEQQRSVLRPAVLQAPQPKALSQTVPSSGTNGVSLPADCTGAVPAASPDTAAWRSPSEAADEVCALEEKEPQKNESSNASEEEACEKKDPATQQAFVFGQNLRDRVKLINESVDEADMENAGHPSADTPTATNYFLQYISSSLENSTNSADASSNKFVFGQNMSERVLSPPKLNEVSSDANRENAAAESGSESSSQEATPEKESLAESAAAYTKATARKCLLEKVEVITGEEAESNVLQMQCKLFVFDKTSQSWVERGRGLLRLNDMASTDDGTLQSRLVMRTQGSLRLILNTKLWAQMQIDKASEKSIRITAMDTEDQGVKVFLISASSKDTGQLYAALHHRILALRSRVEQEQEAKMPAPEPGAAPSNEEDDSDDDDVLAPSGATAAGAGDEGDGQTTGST

Variants of: B1
Details: with fam3c_human FAM3C

Variant | effect of a mutation on the interaction
A152T | with no effect

Variants of: B2
Details: with goga2_human GOLGA2, Q08379

Variant | effect of a mutation on the interaction
N139S | disrupting interaction strength

Variants of: B3
Details: with tri54_human TRIM54, Q9BYV2

Variant | effect of a mutation on the interaction
R415H | with no effect
T552S | with no effect
R559G | with no effect

The next lines start with the values.

effect of a mutation on the interaction | Variant
with no effect | L210M
with no effect | A335T
with no effect | V523F

Variants of: B4
Details: with BCL2L13, Q9BXK5
BCL2L13, Q9BXK5, sequence (Q9BXK5 whole entry): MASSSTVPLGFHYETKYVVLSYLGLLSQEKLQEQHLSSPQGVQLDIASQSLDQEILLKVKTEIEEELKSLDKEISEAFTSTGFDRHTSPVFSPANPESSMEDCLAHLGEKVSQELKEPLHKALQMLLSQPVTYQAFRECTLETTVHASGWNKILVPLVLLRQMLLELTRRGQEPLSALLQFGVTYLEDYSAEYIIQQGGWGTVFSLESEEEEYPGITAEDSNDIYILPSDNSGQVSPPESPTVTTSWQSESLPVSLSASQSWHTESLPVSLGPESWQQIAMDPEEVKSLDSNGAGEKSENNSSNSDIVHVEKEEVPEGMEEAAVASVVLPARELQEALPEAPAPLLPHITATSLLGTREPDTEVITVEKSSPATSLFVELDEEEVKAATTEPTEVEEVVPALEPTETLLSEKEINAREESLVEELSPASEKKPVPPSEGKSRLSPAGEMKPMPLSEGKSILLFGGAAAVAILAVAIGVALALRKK

Variant | effect of a mutation on the interaction
R129W | with no effect

Variants of: B5
Details: with ranb3_human RANBP3, Q9H6Z4

Variant | effect of a mutation on the interaction
Q40R | with no effect
H45R | with no effect
